# Assay results reported in the DeepSol protein solubility set.
# Test: soluble on expression in E. coli; label from the status in PepcDB or PDB records
row,Sequence,soluble on expression in E. coli
1,MGSDKIHHHHHHMRKLIFIAFMVMSVCGYAQKYEVGTTTAVWKAPAAADFLHAKAIGVKYVEVAFNQCYRGVPVDEVIPRIKEMKAKIDSADIEVWSIHLPFSRTLDISVLDDRLRKENVDFMAEMIELCAMFQPTCLVLHPSSEPIADSIRAQRIANASESIAYLKKYADRIGAQLCIENLPRTCLGNTPEELMRIVGDIPDVKVCFDTNHYTKGTTEHFVAIVGSRIGTIHASDFDLVNECHWLPTQGNIKWGKLMQDLEKTGYKGVFMYEATKDHENNNVRPALERIAETFDKITDDYKTLK,not soluble
2,MGSDKIHHHHHHMRLNPERPLLSGSCTQYLDWGLPIAMDAVGPGEARRILDRYGADRVLLVGPPGVGKSTVVRSYAEDSASREGLEFVDLSEARSLEDLDTDSTYAFLHIYAPLVRAEDLAFIARRGEGYDWTLPSRLAYLTRPGVRGLVFIDEITNVALPEVQTILFSMVLDKRVAYNRLSSGVEVVAAGNSPRDSPVSQWPPPPLLDRFRLLIRVKPPDLEEWVSWMNSVGRPWDRRVAAVLKVKPVLMYRPPEDEEDKFPTPRSWSQLAWELAKTGAHGDEAVRIAAMVVGRRAAEEARQFLQPDPASLDLSTFPRLDERERLTLLSVEAGRLASQDVVELCRTLEKVGSYGAHYAVWLLMLSGVDTVEAARSCSYVEDLLSRLSSYLG,not soluble
3,MGSDKIHHHHHHMRLNRETIKDRAAWEKIGVRPPYFDLDEVEKNTKEQPKWVHFGGGNIFRGFVAAVLQNLLEEGKEDTGINVIELFDYEVIDKVYKPYDNLSIAVTIKPDGDFEKRIIASVMEALKGDPSHPDWERAKEIFRNPSLQLASLTITEKGYNIEDQAGNLFPQVMEDMKNGPVSPQTSMGKVAALLYERFKAGRLPIALLSLDNFSRNGEKLYSSVKRISEEWVKSGLVEKDFIDYLEKDVAFPWSMIDKIVPGPSEFIKEHLEKLGIEGMEIFVTSKRTHIAPFVNMEWAQYLVIEDSFPNGRPKLEGADRNVFLTDRETVEKAERMKVTTCLNPLHTALAIFGCLLGYKKIADEMKDPLLKKLVEGVGEEGIKVVVDPGIINPREFLNEVINIRLPNPYLPDTPQRIATDTSQKMPIRFGETIKAYHERPDLDPRNLKYIPLVIAGWCRYLMGIDDEGREMQLSPDPLLENLRSYVSKIKFGDPESTDDHLKPILSSQQLFRVNLYEVGLGEKIEELFKKMITGPRAVRKTLEEVVGREDG,not soluble
4,MGSDKIHHHHHHMRMPEMMFLQGNEACALGAIKAGCRFFAGYPITPSTEIAEVMARELPKVGGVFVQMEDEIASAAAVVGASLAGVKSMTATSGPGFSLIQEVIGYAIMTETPCVFANVMRLGPSTGLPTKPAQGDIMQTRWGTHGDHAIIALYPSSVAEVYRYIITAFNLAEEYRTPVVFLMDAMLGHMRESFYPPKDEELFIIERLKDTSFGEEDLFVPFSESEYAEPTPFPMAEMGKTKFHVSGLVHDESGFPLSSPDAAEKLIRRLTNKIRLHADEIAFYEEYETEDAEILVVAYGIVARSAMKAVKIARRDRIKVGLFKPITIWPAPVSRFRKLAEKVNTIVIAEMNLGQYAKELISSIDRRSKVIRTINKVNGELIKPEEILDVITETQIEI,not soluble
5,MGSDKIHHHHHHMRNSLLVFTLDCQVKIDSKTVDCQTNIDSFLTPNSNLIIVEVEEIKRILLDQESFLNDKLRKERIITRHYNYSITYNNAYLITGPRRAGKSIFTVQLTKGKEILRVDFDDERLSGIKANELNKFLEAGYQIKKKIEVIILDEIQNVKGWELFVSRIREIYPVIVTGSNARLMSSEMATYLTGRHMDFLVFPFSFKEYLRYKDVKVEETTRGIARLKEELRNYLQQGGFPETFKFDKNEYLRNLYSDIITRDVIIRCKTRKDVKGLADFLLENIGKEVSTRRVGNAFNLSHQSVENYFYCLSNAYLFLFVKRFTGKSLERYTLPRKVYVIDTGLFNTYKRLQMGKMIENLVFLELYKRYGQEVYYYSNGNAEVDFIIKDKFAIQVTYDEGGIDDREYKGLVRFSERFKDYKLIIITWDREGKEIRNGKEITLIPLWKFLVKERFAGEMIGKES,not soluble
6,MGSDKIHHHHHHMRRDVFIETRNVMDFRQKVRALEDFSGEPGFALVFGQAGRGKTETARHYHAMNGGIFLRVMQGWSQCAFLQELCFQVCGLRPRSSATCKAKIIEALDSMPQTLFVDEADRLHVDRVEDLRDVFDLTSSTVVLIGEQELRGLLSTRRRIWSRVKQVVEFGPVAEEDVAILGDEAAGLDIAPEACSQIVRLADGDFRLVWSFIHQLELTAKTHGIQQINTELVARVSKLVASWRQQ,not soluble
7,MGSDKIHHHHHHMRREEMWKLINATIEPIDTETSSSHILSEQDVNESTSGVIFIHTVGVMPVTVNDLIEEGRCARTDLSYADVILASRPVEEERTPVVYLNPDMNDASFYLLENAREIVPADLAKDVLLDRIVRYKRVQRVVDAVIVTDDPHLRRLLERELTKNFETLSLYERAEVFLEQHVATRPYLLVFSSALPRADGLELLLRAKQETIVPFHAIMISMYNRERDHVLAIERGVDGIMTLPLKVEEFRAWVSRLEGVHG,not soluble
8,MGSDKIHHHHHHMRVAMWSGPRNLSTAMMYAFGNRPDCEAWDEPFYAAYLAQTGLDHPMRQTVLASQPPHYGAVVERLLATPTQPVQYLKLMTHHMLPDTSLTWATGFANIHLIRHPARVIASYTAKRAEITLDDIGFPQAARLHTALPGPIIDSADIRAAPEAMLRSLCEAIDLPFDPAMLHWPAGPKPFDGAWAPHWYDAVHRSTGFAAAEGHLPEVPDHHRGLLKDALDIYETLHQSRLRP,not soluble
9,MGSDKIHHHHHHMRVILAPMQGVLDPFVRELLTEVNDYDLCITEFVRVVDQLLPEKVFYRLCPELKNQGFTSSGTPVRVQLLGQHPKCLAENAIRAIDLGSHGIDLNCGCPSKTVNGSNGGAALLKQPELIYRATQALRRAVPSEFPVSVKVRLGWDDISQAFEIADAVEQGGATEITVHGRTKADGYRADRINWKKISEVRERLSIPVIANGEIWHWQDGQDCLSQTGCQDLMVGRGALNIPNLSHVLKSNAEKMPWYEIQKILQKYANVENEYDSGFYHVARIKQWLRYLNKEYNEANQVFDKIKTCQTAEDLKLRLNEK,not soluble
10,MGSDKIHHHHHHMSAISYLHLLMLRQNNSMTRHNQTLFNLPLFNQHQFNPPQLNQVAIDQLQQGQAKRLSLLWLWLQQDETRLAALMVCQKVMQQQGITDWLISAGFIRNLIWDNLHSMTSQPLNDIDVIYWRDNNPSSAEDQAIEALLVKQIALPWSVKNQARMHLRNGDMPYISCADAMSFWPEKQTAIGVKLASIDDLTSAEFQLQVTSVFGLSCLFDLSLSPNPKRDKAIFNHRVSQKGWLIHYSKLLVTE,not soluble
11,MGSDKIHHHHHHMSDANVSRLGQANLSGDAKALFLKVFSGEVLTAFQESCVTADKHLVRTITSGKSAQFPILGKISAQYHTPGAEIAGLSVPANEQIITIDDLLISHAFIASIDEAMNHYDVRGPYSTEMGRALSYTYDKHILQLGVLAARASAPVSTEAGGGSVTDSALLTDTTGEALVAALFAAAQKLDEKFIPADERYAYLTPAAYYMLAQNTKLMNSLWGGQGSYAKGELPQVAGISLVKAVHAPFGSNIATVANGGTALTAGTSDKYAVDATSTAALVMHKAAVGTVKLMDLAMESDYDIRRQGTLMVAKYAMGHGILRPAAAVELKTA,not soluble
12,MGSDKIHHHHHHMSDLKSLATKFASDHESGKLLVLPTVWDTWSAGLVEEAGFSGLTIGSHPVADATGSSDGENMNFADYMAVVKKITSAVSIPVSVDVESGYGLSPADLIAQILEAGAVGINVEDVVHSEGKRVREAQEHADYIAAARQAADVAGVDVVINGRTDAVKLGADVFEDPMVEAIKRIKLMEQAGARSVYPVGLSTAEQVERLVDAVSVPVNITAHPVDGHGAGDLATLAGLGVRRVTFGPLWQKWLAATSAQQLKGWA,not soluble
13,MGSDKIHHHHHHMSEALELLGQDIVARAPGVLGHSVAFGELTIVARAASVIDTLTFLRDDAACRFHQLIDLTGVDYPERAARFDVVYHLLSLVKNHRIRLKVSTDEDTPVPSVTPVFPVADWFEREAFDMYGIFFDGHPDLRRILTDYGFHGHPLRKDFPMTGYVEVRYDDELKRVVYEPVKITEFRAFDFLSPWEGAKYALPGDEKAQ,not soluble
14,MGSDKIHHHHHHMSEQKEDLFKPVGEAAAEVEDESIAEQNKANDGVKLTGAQDAMGHPVQEIESLCMNCGKNGTTRLLLTSIPYFREIIIMSFDCPHCGFKNCEIQPASQIQEKGSRYVLKVECREDFNRQVIKSETATCKFVELDIEIPAKRGQLTTVEGLLSEMIDDLSQDQEMRKSIDEALYKKIDDFIQKVKSYINCEPNTIPITFILDDPAGNSWIEYKPGEPQHKWSHTQYVRTDEQNVQVGIITRDQLEQRRQEQLKQLANRERNPSESVKVGSANPQFLSDATDIENFNNEVQTFRASCPSCTQECETHMKPVNIPHFKEVIIMSTVCDHCGYKSNEVKTGGAIPDKGRRITLYCDDAADLSRDILKSETCSMVIPELHLDIQEGTLGGRFTTLEGLLRQVYEELESRIFTQTSDSMDEATKARWVEFFAKLKEAIAGKVKFTVIMEDPLAGSYIQNVYAPDPDPNMTIEDYERTKEQNEDLGLSDIKVE,not soluble
15,MGSDKIHHHHHHMSFLIGPFLKSFIDNVIKDTVIPVKGSVVYCGLFGYAEHSGIYIGDNKIVHLDGSGIIEVVSPQQFIERLSGLNPAMSIYVSCNGSSATGTNTIAKRAKKMVGKSRKYHVILDNCHQFTSGCITGNFDNADNFLWMLKSTAGNKLSTNKWRVWERKYSS,not soluble
16,MGSDKIHHHHHHMSFRSGVATFAGKSSYWFLHTFLHGGSSLPGKITLKLDPNILRTLGAKYDVIVITGTNGKTLTTALTVSVLHEKYPAILTNPTGSNMEQGIVTTFLNAKNPKTGRPLAVLEVDEANVIKVTHYIEPKAFVFTNIFRDQMDRYGEIYTTYQKILDGVALAPKATIIANGDSPIFNSKELPNPIQYYGFDNEPDTDMKAKPNTDGVLCPVCQHILHYHSLTYSNQGKYFCPNCGFARPELTYRLTALGEQTPTSSHFDVDGHPFTIQVGGTYNIYNALAAYAVGRFMGVAPEQIAHAFTANERVFGRQEVINVGDKRVTIILVKNPVGLDQVLHMIGTDKEQFSFVALLNANYADGIDTSWIWDGDFEQLTALDIPTFITGGERYKDITFRLKVAGVPDDQHIVEPDLEKVVDRITDLPTERVYVLATYTAMLQLRKILATKGYIKEGFGA,not soluble
17,MGSDKIHHHHHHMSFSLRNYQVELILDIKKSMLAGHRKIMVQSPPRSGKTVCMAHIAKNATNKQKTVLFFSHRKEINEQVFETFSRAGVDMGLVYIGTVGSIVRKLGKLPVPTLVLVDEAHHIKASQYQQILKYYHQAVQLFFTGTPIRLDGSGFDDMADDLVVGKSILWLQEHGNISEFDYYSINLLDQAKLRKRQGEYTNQSIDDSFDFSNSTAIT,not soluble
18,MGSDKIHHHHHHMSGPGTYSPPSSRLQYLGCCAGVAGARLVPGPLGGRFPFSNCVLVEDAGFKVLVDTGCEPWERGLVDVDVVVFTHFHPDHIRGFHRLRAGRVAAPEGEEPYAGRLERLALRFAGERWREWISMARLVMDLEGVPEPGEYFRPGEDLCFRGVCIKTYPARGHLQTHTLLELPGGLVHLVDIDLTGFGPWYGNPEASPELFLLDIEAAAEMEARGYLSAHKDRVYSRGEGVEALARFAGRLVEQAEGVYKALEAAGRPLWPWELTGRGIIYRRYLEGMEAIMSYFEGVMIEKLLGLLGLWGCTRKTPGGYVARDCHLGVIKDRITRNILSLA,not soluble
19,MGSDKIHHHHHHMSGQCLYILRNRTNWHVNRLRVFTPSQEGGASVCKRTTRRAADTIPRNIDSCCDRVLRNGILRRSRAAPTNRDTNMLHQNNGFHANALLGSLADDSLRALAPHLELVKIKSAQLLCETDEPMRHLYFPTTAMMSVLYLMEDGAMVEVAAVGNEGVVGVSTLADYGCGGASGRIEVRSGGYAYRVSTQVFRREFDRSLDTFQLMLRYWQAAMTQIARGALCNRHHSVSEQLSRWLLLAHDRVEGDELAVTQQTIANMLGVRREGITEAAGKLQEAGLIRQRRGHITVLDREGLEARACECYGVIRGEFNRLILEARRDAHAPQPIPAEGRPLRVAGYHGAVRSAA,not soluble
